Data taken from patent US20260125472A1 (HEFEI TG IMMUNOPHARMA, published 2026).

Experiments:
[1] = target: T1, Trop2 on A-375-Trop2 melanoma cells (UniProt P09758 27-323, limits assumed); test: flow cytometry, A-375-Trop2 cells, MFI [panel B]
T1 construct: whole, on cells
T1 sequence (looked up): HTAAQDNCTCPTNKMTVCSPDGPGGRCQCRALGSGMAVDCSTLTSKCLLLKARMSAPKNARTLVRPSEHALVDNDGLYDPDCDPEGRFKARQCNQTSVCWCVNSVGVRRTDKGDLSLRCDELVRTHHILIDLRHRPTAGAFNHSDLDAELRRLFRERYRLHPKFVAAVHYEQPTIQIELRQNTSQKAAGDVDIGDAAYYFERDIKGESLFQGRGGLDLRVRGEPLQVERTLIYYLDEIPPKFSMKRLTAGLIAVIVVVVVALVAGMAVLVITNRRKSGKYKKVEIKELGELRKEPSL
Method: (§1) (2) The tumor cells were diluted to 2×10⁶/ml with PBS and added to a 1.5 ml EP tube at a volume of 100 μl/tube, and goat serum was added thereto at 10 μl/tube. The cells were blocked at 4° C. for 30 min. The serially diluted bispecific antibodies, Cross3×Trop2, Cross303×Trop2, Cross307×Trop2, Cross308×Trop2, Cross309×Trop2, Cross310×Trop2, Cross311×Trop2, Cross312×Trop2, Cross313×Trop2, Cross314×Trop2, Cross316×Trop2, Cross317×Trop2, Cross318×Trop2, Cross323×Trop2, Cross325×Trop2, Cross326×Trop2, and Cross3×PDL1, Cross303×PDL1, Cross307×PDL1, Cross308×PDL1, Cross309×PDL1, Cross310×PDL1, Cross311×PDL1, Cross312×PDL1, Cross313×PDL1, Cross314×PDL1, Cross316×PDL1, Cross317×PDL1, Cross318×PDL1, Cross323×PDL1, Cross325×PDL1, Cross326×PDL1, and control hIgG1LALA (purchased from Bio-Tech) were added and incubated at 4° C. for 30 min. 1 ml of PBS was added to the EP tube, followed by centrifugation at 3500 rpm for 5 min at 4° C. The supernatant was discarded, and the cells were washed again with PBS. After centrifugation, the supernatant was completely discarded, and the cells were resuspended with PBS at 100 μl/tube. Alexa-647-labeled goat anti-human IgG secondary antibody (purchased from Jackson lab) was added at 1 μl/tube and incubated at 4° C. in the dark for 30 min. The cells were washed twice with PBS, and the supernatant was completely discarded after centrifugation. The cells were resuspended with PBS at 200 μl/tube and assay was performed using the flow cytometry.

Trop2 protein = target: T2, Trop2 protein (UniProt P09758 27-274); test: ELISA, coated Trop2 protein, OD450
T2 construct: Bought recombinant protein; also called Trop2-Biotin protein (biotin-labelled, bridging ELISA)
T2 sequence (looked up): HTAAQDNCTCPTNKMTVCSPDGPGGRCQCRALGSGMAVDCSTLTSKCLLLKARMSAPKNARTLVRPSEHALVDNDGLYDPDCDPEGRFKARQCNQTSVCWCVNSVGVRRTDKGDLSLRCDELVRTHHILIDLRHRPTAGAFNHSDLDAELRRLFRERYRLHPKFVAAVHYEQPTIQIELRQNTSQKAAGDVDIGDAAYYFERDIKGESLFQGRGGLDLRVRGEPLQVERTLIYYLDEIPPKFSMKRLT
From the text: (§2) In this example, the binding properties of the CD3×Trop2 and CD3×PDL1 bispecific antibody (the production method and the amino acid sequences of the heavy and light chains were shown in Example 1) were detected by using ELISA. The CD3E&D, Trop2, or PDL1 protein was coated onto 96-well plates by inventors, and the strength of the signal after the addition of the antibody was used to determine the binding properties of the antibody and the corresponding protein.
(2) Trop2 protein (purchased from Acro) was diluted to 2 μg/ml with PBS buffer, added to a 96-well plate at a volume of 100 μL/well, and placed at 4° C. overnight. The PBS buffer in the 96-well plate was aspirated, and the plate was washed 6 times with PBST (pH 7.2 PBS containing 0.1% Tween 20) buffer. Then, 200 μL/well PBS/10% BSA was added and incubated at 37° C. for 2 h for blocking. The blocking solution was removed, and the plate was washed six times with PBST. Then, the to-be-tested bispecific antibodies, Cross3×Trop2, Cross303×Trop2, Cross307×Trop2, Cross308×Trop2, Cross309×Trop2, Cross310×Trop2, Cross311×Trop2, Cross312×Trop2, Cross313×Trop2, Cross314×Trop2, Cross316×Trop2, Cross317×Trop2, Cross318×Trop2, Cross323×Trop2, Cross325×Trop2, Cross326×Trop2, and control IgG1LALA (purchased from Bio-Tech), serially diluted with PBST/0.05% BSA, were added at 100 μL/well and incubated at 37° C. for 1 h. The reaction system was removed, and the plate was washed 6 times with PBST. Then, HRP (horseradish peroxidase)-labeled anti-human secondary antibody (Fab specific) (purchased from Sigma) diluted with PBST/0.05% BSA at 100 μL/well. After the plate was washed six times with PBST, TMB (tetramethylbenzidine) was added at 80 μL/well, and incubated at room temperature for 3 min. 4 M sulfuric acid was added at 80 μL/well to terminate the reaction. The absorbance was read at 450 nm using a microplate reader.

CD3E&D protein = target: T3, CD3E&D protein (UniProt P04234 22-105); test: ELISA, coated CD3E&D protein, OD450
T3 construct: Purchased from Acro; also called CD3 E&D antigens; CD3E&D antigen protein
T3 sequence (chain, as listed by the source limits assumed, chain 1 of 2): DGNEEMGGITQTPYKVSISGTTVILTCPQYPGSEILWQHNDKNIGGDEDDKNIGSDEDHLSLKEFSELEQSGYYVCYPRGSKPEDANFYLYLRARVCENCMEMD
T3 sequence (P04234 22-105 limits assumed, chain 2 of 2): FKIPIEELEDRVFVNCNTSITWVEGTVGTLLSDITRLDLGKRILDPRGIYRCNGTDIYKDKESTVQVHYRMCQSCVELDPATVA
From the text: as §2
(1) CD3E&D protein (purchased from Acro) was diluted to 2 μg/ml with PBS buffer, added to a 96-well plate at a volume of 100 μL/well, and placed at 4° C. overnight. The PBS buffer in the 96-well plate was aspirated, and the plate was washed 6 times with PBST (pH 7.2 PBS containing 0.1% Tween 20) buffer. Then, 200 μL/well PBS/10% BSA was added and incubated at 37° C. for 2 h for blocking. The blocking solution was removed, and the plate was washed 6 times with PBST. […] The absorbance was read at 450 nm using a microplate reader.

[2] = target: T4, PDL1 on A-375 melanoma cells, HCT-15 colorectal cancer cells and A549 lung cancer cells (UniProt Q9NZQ7 19-290, limits assumed); test: flow cytometry, HCT-15 cells, binding ratio % [panel A]
T4 construct: whole, on cells
T4 sequence (Q9NZQ7 19-290 limits assumed): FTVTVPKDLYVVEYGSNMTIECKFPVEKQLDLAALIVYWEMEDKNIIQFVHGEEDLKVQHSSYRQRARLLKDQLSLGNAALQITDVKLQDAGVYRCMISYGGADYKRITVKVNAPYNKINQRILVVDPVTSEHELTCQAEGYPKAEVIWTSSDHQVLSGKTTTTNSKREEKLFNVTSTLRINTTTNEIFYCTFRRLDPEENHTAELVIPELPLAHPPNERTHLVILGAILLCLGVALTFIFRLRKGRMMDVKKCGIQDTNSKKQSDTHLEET
Method: as §1, with “The cells were resuspended with PBS at 200 μl/tube and assay was performed using the flow cytometry.” left out

[3] = target: T4, PDL1 on A-375 melanoma cells, HCT-15 …; test: flow cytometry, A-375 cells, binding ratio % [panel A]
Method: as §1

PDL1 protein = target: T5, PDL1 protein (UniProt Q9NZQ7 19-238); test: ELISA, coated PDL1 protein, OD450 [panel A]
T5 construct: Bought recombinant protein
T5 sequence (Q9NZQ7 19-238 limits assumed): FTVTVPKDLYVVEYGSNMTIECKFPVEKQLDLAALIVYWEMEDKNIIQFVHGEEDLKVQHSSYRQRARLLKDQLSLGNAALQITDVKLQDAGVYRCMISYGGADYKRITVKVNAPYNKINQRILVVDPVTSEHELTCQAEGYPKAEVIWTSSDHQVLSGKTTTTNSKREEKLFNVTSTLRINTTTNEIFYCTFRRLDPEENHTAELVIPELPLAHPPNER
Procedure, shortened: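 PDL1 protein coated at 2 μg/ml overnight at 4 °C, blocked with PBS/10% BSA; serially diluted bispecific antibodies or control IgG1LALA bound 1 h at 37 °C. Detection with HRP anti-human Fab secondary antibody and TMB for 3 min, stopped with sulfuric acid, absorbance at 450 nm.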

[4] = target: T4, PDL1 on A-375 melanoma cells, HCT-15 …; test: flow cytometry, A549 cells, MFI [panel B]
Procedure, shortened: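 Cells were blocked with goat serum at 4° C for 30 min, then incubated with serially diluted bispecific antibodies or hIgG1LALA control at 4° C for 30 min. Bound antibody was detected with Alexa-647 anti-human IgG (4° C, 30 min, dark) and read by flow cytometry.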

| Binder | EC50 (read off the curve) [1] | EC50 (read off the curve) (Trop2 protein) | EC50 (read off the curve) (CD3E&D protein) | EC50 (read off the curve) [2] | EC50 (read off the curve) [3] | EC50 (read off the curve) (PDL1 protein) | EC50 (read off the curve) [4] |
| --- | --- | --- | --- | --- | --- | --- | --- |
| Cross317×Trop2 (bispecific antibody) scFv: not shown heavy: QVQLQQSGSELKKPGASVKVSCKASGYTFTNYGMNWVKQAPGQGLKWMGWINTYTGEPTYTDDFKGRFAFSLDTSVSTAYLQISSLKADDTAVYFCARGGFGSSYWYFDVWGQGSLVTVSSASTKGPSVFPLAPSSKSTSGGTAALGCLVKDYFPEPVTVSWNSGALTSGVHTFPAVLQSSGLYSLSSVVTVPSSSLGTQTYICNVNHKPSNTKVDKKVEPKSSDKTHTCPPCPAPEAAGGPSVFLFPPKPKDTLMISRTPEVTCVVVDVSHEDPEVKFNWYVDGVEVHNAKTKPREEQYNSTYRVVSVLTVLHQDWLNGKEYKCKVSNKALPAPIEKTISKAKGQPREPQVCTLPPSREEMTKNQVSLSCAVKGFYPSDIAVEWESNGQPENNYKTTPPVLDSDGSFFLVSKLTVDKSRWQQGNVFSCSVMHEALHNHYTQKSLSLSPGK light: DIQLTQSPSSLSASVGDRVSITCKASQDVSIAVAWYQQKPGKAPKLLIYSASYRYTGVPDRFSGSGSGTDFTLTISSLQPEDFAVYYCQQHYITPLTFGAGTKVEIKRTVAAPSVFIFPPSDEQLKSGTASVVCLLNNFYPREAKVQWKVDNALQSGNSQESVTEQDSKDSTYSLSSTLTLSKADYEKHKVYACEVTHQGLSSPVTKSFNRGEC | ~1 µg/mL | ~0.008 µg/mL | ~1 µg/mL |  |  |  |  |
| Cross310×PDL1 (bispecific antibody, human IgG1, kappa, L234A L235A) scFv: not shown heavy: QVQLVQSGAEVKKPGASVKVSCKASGYSFTGYYMHWVRQAPGQGLEWIGRINPYNGATTYSQNFKDRATMTVDTSISTAYMELSRLRSDDTAVYYCVPTGMGYFLMDYWGQGTLVTVSSASTKGPSVFPLAPSSKSTSGGTAALGCLVKDYFPEPVTVSWNSGALTSGVHTFPAVLQSSGLYSLSSVVTVPSSSLGTQTYICNVNHKPSNTKVDKKVEPKSCDKTHTCPPCPAPEAAGGPSVFLFPPKPKDTLMISRTPEVTCVVVDVSHEDPEVKFNWYVDGVEVHNAKTKPREEQYNSTYRVVSVLTVLHQDWLNGKEYKCKVSNKALPAPIEKTISKAKGQPREPQVCTLPPSREEMTKNQVSLSCAVKGFYPSDIAVEWESNGQPENNYKTTPPVLDSDGSFFLVSKLTVDKSRWQQGNVFSCSVMHEALHNHYTQKSLSLSPGK light: DIQLTQSPSFLSASVGDRVTITCKASQDVGSAVVWYQQKPGKAPKLLIYWASTRHTGVPSRFSGSGSGTEFTLTISSLQPEDFATYFCQQFTSYPTFGQGTKLEIKRTVAAPSVFIFPPSDEQLKSGTASVVCLLNNFYPREAKVQWKVDNALQSGNSQESVTEQDSKDSTYSLSSTLTLSKADYEKHKVYACEVTHQGLSSPVTKSFNRGEC |  |  |  | ~0.7 µg/mL | ~0.7 µg/mL | ~0.5 µg/mL | ~2 µg/mL |
